Entries after “also recorded” stand apart in the source; their conditions may differ.

Common to all, as to type: cell-based, human
The subject of experiment [1] is Flp-In T-REx-293 cells. Nature of the experiment: Tetracycline-inducible P-Tet TL reporter HDR and mutEJ assay with or without doxycycline. How it is done: To ask if active transcription was required for the transcribed strand bias in HDR at nicks, derivatives of the TLTP and TLNT reporters were created in which a tetracycline-inducible (P-Tet) was substituted for the constitutive SFFV promoter upstream of GFP. TheseP-Tet TLTP and P-Tet TLNT reporters were stably integrated at the unique FRT site in Flp-In™ T-REx™-293 cells. Cells were cultured with (ON) or without (OFF) 1 μg/ml doxycycline, transfected with an I-AniI expression construct and the pCS14GFP plasmid dsDNA donor, and after 8-9 days of culture, doxycycline was added to the OFF cells to permit detection of HDR (GFP+) and mutEJ (mCherry+) events that had occurred in the absence of transcription. Active transcription increased the frequency of HDR at a transcribed-strand nick 2.5-fold, but reduced the frequency of HDR at a non-transcribed strand nick 4-fold (FIG. 9C). These opposing effects together accounted for the 8-fold greater frequency of HDR at a transcribed strand nick in a transcribed gene (FIG. 9B). […] Without wishing to be bound by theory, the transcription-associated strand bias of HDR at nicks may reflect unwinding ahead of the transcription apparatus that exposes the recombinogenic 3′ end of a transcribed strand nick that stimulates HDR, while occlusion of the 3′ end and exposure of the less recombinogenic 5′ end of a non-transcribed strand nick may hinder HDR (FIG. 9D). Similarly, the 2-fold reduction in mutEJ observed at DSBs, but not at nicks (FIG. 17B), may be caused by occlusion of the DSB by factors associated with the transcription apparatus.
(§1) Cell culture and transfection. […]
Flow cytometry. Cells were fixed in 2% formaldehyde and analyzed on an LSR II™ flow cytometer (Becton Dickinson, Franklin Lakes, N.J.). […]

The test system of experiment [2] is 293T-TL7TP cells. As to the kind of experiment: Traffic Light (TL) reporter HDR (GFP+) flow assay, I-AniI nickase or cleavase, 293T-TL7TP clonal line. The note with it: I-AniI nick, 99 nt ssDNA donors. The source says: Damage to the transcribed DNA strand is preferentially detected and repaired in transcription-coupled nucleotide excision repair^7, and transcribedstrand nicks can arrest transcriptional elongation in human cell extracts^8. […] Chromosomal repair targets were derived from the TL reporter^9. TLTP and […] reporters carry an I-AniI site oriented for nicking the transcribed or non-transcribed strand, respectively (FIGS. 1A and 5A-5E). HDR that replaces the I-AniI site and nonsense codons yields GFP+ cells (FIGS. 1B and 5A-5E). […] GFP+ cells among I-AniI-expressing (BFP+) cells were quantified 3 days later.
(§2) Flow cytometry data were analyzed using FlowJo™ (Tree Star, Ashland, Oreg.) flow cytometry analysis software and frequencies were transferred to Microsoft Excel™ in which statistical significance was determined by two-tailed t-test. In all experiments I-AniI was co-expressed with mTagBFP (BFP) and GFP+ and mCherry+ frequencies among BFP+ cells are shown.
Damage to the transcribed strand is preferentially detected and repaired in transcription-coupled nucleotide excision repair (16), and transcribed strand nicks can arrest transcriptional elongation in human cell extracts (17). […]

The subject of experiment [3] is HT1080-TL4TP clonal line. Nature of the experiment: TL reporter HDR (GFP+) flow assay, I-AniI nickase or cleavase, HT1080-TL4TP clonal line. The note with it: I-AniI nick, ssDNA donors. The protocol: as §2
ssDNA molecules can serve as donors for HDR at DSBs (22-24). It was asked if they can also serve as donors for HDR at nicks using 99 nt ssDNA oligonucleotides in which a central 17 nt heterologous region corrects the mutations in the defective target gene (FIG. 10A). […] No donor strand bias was evident at DSBs.
Flow cytometry, HDR and mutEJ frequencies. Cells were processed for flow cytometry as described previously (13). In experiments with I-AniI, which was co-expressed with mTagBFP (BFP), data are presented as GFP+ and mCherry+ frequencies among BFP+ cells, except in cases where flow was carried out more than 8 days post-transfection, by which time the BFP signal was largely extinguished.
as §1
(§3) Flow cytometry. Cells were fixed in 2% formaldehyde and analyzed on an LSR II™ flow cytometer (Becton Dickinson, Franklin Lakes, N.J.). […] GFP, mCherry, and mTagBFP fluorescence were detected with 488 nm, 561 nm 406 nm and 641 nm lasers, respectively. […]

The test system of experiment [4] is 293T-TL7TP line. As to the kind of experiment: TL reporter mutagenic end joining (mCherry+) flow assay, I-AniI, 293T-TL7TP line. The note with it: mCherry+ cells, nicks or DSBs.
Text: Damage associated with gene targeting must be minimized for these applications. While the sequence-specificity of I-AniI limits its application to genome engineering, it is useful as a model in this context, as it cuts DNA to generate 5′-phosphate and 3′-hydroxyl ends like the FokI cleavage domain^13 of zinc finger or TALE nucleases suited for genome engineering applications. The TL reporter was used to quantify mutagenic end joining (EJ) accompanied by +2 frameshift that allows the mCherry gene to be translated (FIG. 1B). In the 293T-TL7TP line, the frequency of nick-initiated mutagenic EJ was nearly two orders of magnitude lower than that of DSB-initiated mutagenic EJ, regardless of donor (FIG. 3E). RAD51K133R expression increased the frequency of mutagenic EJ, but the frequency of nick-initiated mutagenic EJ remained lower than that of DSB-initiated mutagenic EJ (FIG. 3E). […]
Flow cytometry data were analyzed using FlowJo™ (Tree Star, Ashland, Oreg.) flow cytometry analysis software and frequencies were transferred to Microsoft Excel™ in which statistical significance was determined by two-tailed t-test. […]
as §3

In experiment [5] the test system is 293T-TLTP and 293T-TLNT cell populations. Nature of the experiment: TL reporter HDR (GFP+) assay in 293T-TLTP and 293T-TLNT cell populations, I-AniI. The note with it: I-AniI nickase. The source says:
Populations of 293T cells bearing either the TLTP or TLNT reporter at heterogeneous integration sites were transiently transfected with a construct co-expressing I-AniI and the blue fluorescent protein mTagBFP (BFP), and with the dsDNA plasmid donor pCS14GFP. This donor is homologous with the TLTP and TLNT reporters over a region extending 2.47 kb upstream and 0.56 kb downstream of the I-AniI site (FIG. 15A-15C). GFP+ cells among I-AniI-expressing (BFP+) cells were quantified at 3 days post-transfection. […] Nicks initiated HDR with nearly 8-fold greater frequency in the TLTP than in the TLNT population.
To learn what determines ssDNA donor strand bias, HDR by ssDNA donors complementary to the intact (cI) or nicked (cN) strand at transcribed and non-transcribed strand nicks in the TLTP and TLNT populations was compared. The TLTP and TLNT populations carry reporters delivered by lentiviruses and integrated at heterogeneous chromosomal positions, to minimize possible effects of replication direction on this assay.
To determine whether there is a predominant directionality to unwinding or resection, a comparison was made of HDR at nicks by ssDNA donors identical in length (75 nt) and centered on the nick or extending either 3′ or 5′ of the nick. […]

Where [6] appears, read: ON vs OFF, 1 μg/ml doxycycline, pCS14GFP dsDNA donor.

As for `C[C@H]1c2cccc(O)c2C(=O)C2=C(O)[C@]3(O)C(=O)C(C(N)=O)=C(O)[C@@H](N(C)C)[C@@H]3[C@@H](O)[C@@H]21` [doxycycline], the “reduction in mutEJ at DSBs” value in experiment [1] (ON vs OFF doxycycline, FIG. 17B, not at nicks) turned out to be 2 fold. In experiment [1] (setting [6]), the “increase of the frequency of HDR at a transcribed-strand nick” value was determined as 2.5 fold and the “reduction of the frequency of HDR at a non-transcribed strand nick” value stood at 4 fold.

B1: RAD51K133R: dominant negative RAD51 mutant which does not hydrolyze ATP, transiently expressed from pCMV-RAD51K133R-T2A-IFP-1.4 (protein, UniProt Q06609 2-339, looked up, variant K133R)
DNA repair protein RAD51 …: AMQMQLEANADTSVEEESFGPQPISRLEQCGINANDVKKLEEAGFHTVEAVAYAPKKELINIKGISEAKADKILAEAAKLVPMGFTTATEFHQRRSEIIQITTGSKELDKLLQGGIETGSITEMFGEFRTGRTQICHTLAVTCQLPIDRGGGEGKAMYIDTEGTFRPERLLAVAERYGLSGSDVLDNVAYARAFNTDHQTQLLYQASAMMVESRYALLIVDSATALYRTDYSGRGELSARQMHLARFLRMLLRLADEFGVAVVITNQVVAQVDGAAMFAADPKKPIGGNIIAHASTTRLYLRKGRGETRICKIYDSPCLPEAEAMFAINADGVGDAKD
modifications: T2A-IFP1.4 coexpression
Take B1: the “frequency of HDR at nicks by ssDNA donor” value in experiment [2] and in experiment [3] was “stimulating” throughout. The “frequency of mutagenic EJ” value in experiment [4] is on record as “increased”. For the same molecule, the “effect on HDR at nicks in the transcribed or non-transcribed strand” value in experiment [5] was “Stimulation was evident; also recorded: comparable effects”.

The values are drawn from patent publication US20160040155A1, “ACTIVATING AN ALTERNATIVE PATHWAY FOR HOMOLOGY-DIRECTED REPAIR TO STIMULATE TARGETED GENE CORRECTION AND GENOME ENGINEERING” (UNIVERSITY OF WASHINGTON THROUGH ITS CENTER FOR …, priority 2013, published 2016).
